These results are taken from the nanobody polyreactivity screen of Harvey et al. (2022).

The data set is described as follows: yeast display, Sf9 membrane polyspecificity reagent, FACS + sequencing; frameworks hold sequencing errors. A digest of the protocol:
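Nanobodies from a synthetic yeast display library (Saccharomyces cerevisiae BJ5465), induced 36–48 hours with galactose, were stained 1 hour at 4 °C with 10% biotinylated, detergent-solubilized Sf9 membrane reagent, enriched on streptavidin microbeads, then FACS-sorted. Anti-HA (expression) and streptavidin (reagent binding) fluorescence set low and high (top ~1%) gates. Polyreactivity labels come from the gate of origin. Genes were colony-PCR amplified, MiSeq 2 × 250 sequenced and filtered by CDR length.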
With “QVQLVESGGGLVQAGGSLRLSCAASGFTLTLYAMGWYRQAPGKERELVARITSSGGITYYADSVKGRFTISRDNAKNTVYLQMISLKPEDTAVYYCAKEALIGPSRIILGEMGYWGQGTQVTVSS”, the “polyreactivity (PSR sort gate)” value was “low polyreactivity”.

With “QVQLVESGGGLVQAGGSLRLSCAASGFTLTRNAMGWYRQAPGKERELVAAISWSGGTTYYADSVKGRFTISRDNAKNTVYLQMNSLKPEDTAVYYCAADYTLQRQTSFLDSEFYWGQGTQVTVSS”, the “polyreactivity (PSR sort gate)” value is listed as “high polyreactivity”.

Consider “QVQLVESGGGLVQAGGSLRLSCAASGFTLVKYVMVWYMQAPGKEREFVATIRRRGGNTYYADSVKGRFTISRDNAKNTVYLQMNSLKPEDTAVYYCAAKKRSDLRTGDMEYWGQGTQVTVSS”, for which the “polyreactivity (PSR sort gate)” value is given as “high polyreactivity”.

As for “QVQLVESGGGLVQAGGSLRLSCAASGFTLVLNAMGWYRQAPGKERELVAAIRRSAGSTYYADSVKGRFTISRDNAKNTVYLQMNSLKPEDTAVYYCAAGFLWAKYAYGHWGQGTQVTVSS”, the “polyreactivity (PSR sort gate)” value is listed as “low polyreactivity”.

For “QVQLVESGGGLVQAGGSLRLSCAASGFTLVLNAMGWYRQAPGKEREVVAAIRRSAGSTYYADSVKGRFTISRDNAKNTVYLQMNSLKPEDTAVYYCAAGFLWAKYAYGHWGQGTQVTVSS”, the “polyreactivity (PSR sort gate)” value is listed as “low polyreactivity”.

Take “QVQLVESGGGLVQAGGSLRLSCAASGFTLWLNAMGWYRRAPGKERELVAAITTSDDGTYYADSVKGRFTISRDNAKNTVYLQMNSLKPEDTAVYYCAADYYSVLYDYWGQGTQVTVSS”: the “polyreactivity (PSR sort gate)” value is “low polyreactivity”.

For “QVQLVESGGGLVQAGGSLRLSCAASGFTLWYNTMGWYRQAPGKERELVASITIGDSTSYADSVKGRFTISRDNAKNTVYLQMNSLKPEDTAVYYCNAEIALNSYDTYHRAADGYNYWGQGTQVTVSS”, the “polyreactivity (PSR sort gate)” value was “low polyreactivity”.

Regarding “QVQLVESGGGLVQAGGSLRLSCAASGFTLYDNAMGWYRQAPWKERELVAAISWSGGSTYYADSVKGRFTISRDNAKNTVYLQMNRLKPEDTAVYYCATDFVSYAEGRMEYWGLGTQVTVSS”, the “polyreactivity (PSR sort gate)” value was “low polyreactivity”.

As to “QVQLVESGGGLVQAGGSLRLSCAASGFTLYRNAMGWYRQAPGKERELVAAITSSGGGTYYADSVKGRFTISRDNAKNTVYLQMNSLKPEDTAVYYCAARSTSDREGNYWGQGTQVTVSS”, the “polyreactivity (PSR sort gate)” value is given as “low polyreactivity”.

As to “QVQLVESGGGLVQAGGSLRLSCAASGFTLYRNAMGWYRQAPGKERELVAAITSSGGRTYYADSVKGRFTISRDNAKYTVYLQMNSLKPEVTAVYSCAADFGLGYYYWGQGTQVTVSS”, the “polyreactivity (PSR sort gate)” value is “high polyreactivity”.

In the case of “QVQLVESGGGLVQAGGSLRLSCAASGFTLYRYAMAWYRQAPGKERELVAAISWSGGSTYYADSVKGRFTISRDNAKNTVYLQMNSLKPEDTAVYYCAATGYVTRSKRYDYWGQGTQVTVSS”, the “polyreactivity (PSR sort gate)” value is “high polyreactivity”.

As for “QVQLVESGGGLVQAGGSLRLSCAASGFTLYYSAMGWYRQAPGKERELVAAISYSGGSTYYADSVKGRFTISRDYAKNTVYLHMYSLKPEDTAVSYCAVQFSYGFTGGPIYDYWGQGTQVTVSS”, the “polyreactivity (PSR sort gate)” value is given as “low polyreactivity”.

Regarding “QVQLVESGGGLVQAGGSLRLSCAASGFTLYYYMGWYRQAPGKERELVARIRATGGSTYYADSVKGRFTISRDNAKNTVDLQMNSLKPEDTAVYYCAAKGVPRRYRPDMYYWGQGTQVTVSS”, the “polyreactivity (PSR sort gate)” value is on record as “high polyreactivity”.

Consider “QVQLVESGGGLVQAGGSLRLSCAASGFTNAMGWYRQAPGKERELVAAISYSGDSTNYADSVKGRFTISRDNAKNTVYLQINSVKPEDTAVYYCNASSPYDYDWGQGTHVTVSS”, for which the “polyreactivity (PSR sort gate)” value is “low polyreactivity”.

Turning to “QVQLVESGGGLVQAGGSLRLSCAASGFTNLNSMGRYRQAPGKERELVADISASGGTTYYADSVKGRFTISLDNAKNTVYLQMNSLKPEDTAVYYCAARRYYPRWYYWIRFDYWGQGTQVTVSS”, the “polyreactivity (PSR sort gate)” value is on record as “high polyreactivity”.

In the case of “QVQLVESGGGLVQAGGSLRLSCAASGFTNSMGWYRQAPGKERELVAAISYSGDSTNYADSVKGRFTISRDNAKNTVYLQMNSLKPQDTAVYYCNASSPYDYDWGQGTQVTVSS”, the “polyreactivity (PSR sort gate)” value was “low polyreactivity”.

On to “QVQLVESGGGLVQAGGSLRLSCAASGFTPGNVMGWYRQAPGKERELVAAISWSGDSTYYADSVKGRFTISRDNAKNTVYLQMNSLKPEDTAVYYCAADGVPGRAVDYEYWGQGTQVTVSS”, for which the “polyreactivity (PSR sort gate)” value is “high polyreactivity”.

On to “QVQLVESGGGLVQAGGSLRLSCAASGFTSGNYAMGWYRQAPGKEREFVAAITWGDGSTFYADSVKGRFTISRDNAKNTVYLQMNSLKPEDTAVYYCAADYSRTYRAYDYWGQGTQVTVSS”, for which the “polyreactivity (PSR sort gate)” value is “low polyreactivity”.

As for “QVQLVESGGGLVQAGGSLRLSCAASGFTSGYNLMGWYRQAPGKERELVAAISWRGTSTYYADSVKGRFTISRDNAKNTVYLQMNSLKPEDTAVYYCAARQRWYWRGYDYWGQGTQVTVSS”, the “polyreactivity (PSR sort gate)” value was “high polyreactivity”.

Turning to “QVQLVESGGGLVQAGGSLRLSCAASGFTSGYYAMGWYRQAPGKERELVAAISFSGDDTYYADSVKGRFTISRDNAKNTVYLQMNCLKPEVTAVYYCAAEYDLYFLDQGYWYVAFDYWGQGTQVTVSS”, the “polyreactivity (PSR sort gate)” value is listed as “high polyreactivity”.

Take “QVQLVESGGGLVQAGGSLRLSCAASGFTSGYYAMGWYRQAPGKESELVAAIDWSDGGTYYADSVKGRFTISRDNAKNTVYLQMNSLKPEDTAVYYCATVRYVQITRDDYWGQGTQVTVSS”: the “polyreactivity (PSR sort gate)” value is reported as “low polyreactivity”.

For “QVQLVESGGGLVQAGGSLRLSCAASGFTSKTNAMGWYRQAPGKERELVAGITRTGGSTYYADSVKGRFTISRDNAKNTVYLQMNSLKPEDTAVYYCAREYGDGYEYWGQGTQVTVSS”, the “polyreactivity (PSR sort gate)” value is listed as “low polyreactivity”.

“QVQLVESGGGLVQAGGSLRLSCAASGFTSRKNAMGWYRQAPGKERELVAAITQSSGRTYYADSVKGRFTISRDNAKNTVYLQMNSLKPEDTAVYYCAARRGGEDDYWGQGTQGTVSS”: the “polyreactivity (PSR sort gate)” value was “low polyreactivity”.

As to “QVQLVESGGGLVQAGGSLRLSCAASGFTSSAYAMGWYRQEPGKESELVAVISRSGGRTYYADSVKGRFTISRDNAKNTVYLQMNSLKPEDTADYYCAAEYGVYNIHFPGYDYWGQGTQVTVSS”, the “polyreactivity (PSR sort gate)” value was “high polyreactivity”.

As to “QVQLVESGGGLVQAGGSLRLSCAASGFTSWQYAMGWYRQAPGKERELVAAISVSGASTYYADSVKGRFTISRDNAKNTVYLQMNSLKPEDTAVYYCAAAYVRYPTTRYYYWGQGTQVTVSS”, the “polyreactivity (PSR sort gate)” value was “high polyreactivity”.

Regarding “QVQLVESGGGLVQAGGSLRLSCAASGFTSYRYAMGWYRQAPGKERELVAAISSSGRTDYADSVKGRFTISRDNAKNSVYLQMNSLKPEDTAVYYCAARTYSYVGRYKFDYWGQGTQVTVSS”, the “polyreactivity (PSR sort gate)” value is “high polyreactivity”.

For the sequence “QVQLVESGGGLVQAGGSLRLSCAASGFTVEKNAMGWYRPAPGNERELVAAITKSGGSTYYADSVKGRFTISRDNAKNTVYLQMNSLKPEDTAVYFCNAPPWSRYYYDLLRHDYWGQGTQVTVSS”, the “polyreactivity (PSR sort gate)” value is listed as “low polyreactivity”.

On to “QVQLVESGGGLVQAGGSLRLSCAASGFTVYGYTMGWYREAPGKERELVAAITSGDSTYYADSVKGRVTISRDIAQNTDYLQMHTLKPEETAVYYCATDWDVEYAWTEYYYWGQGTQVTVSS”, for which the “polyreactivity (PSR sort gate)” value is given as “high polyreactivity”.

For the sequence “QVQLVESGGGLVQAGGSLRLSCAASGFTWSYAMGWYRQAPGKERELVATISDGVSTNYADSVKGRFTISRDNAKNTVYLQMNSLKPEDTAVYYCAARYTSWGMGYWGQGTQVTVSS”, the “polyreactivity (PSR sort gate)” value is “low polyreactivity”.

Turning to “QVQLVESGGGLVQAGGSLRLSCAASGFTYIFYAMGWYRQAPGKERELVAAITWDGDRTYYADSVKGRFTISRDNAKNTVYLQMNSLKPEDTAVYYCNADEGGNYREDYWGQGTQVTVSS”, the “polyreactivity (PSR sort gate)” value is recorded as “low polyreactivity”.
